Test results as given in US20210070881A1 (DENALI THERAPEUTICS, published 2021).
Changes are numbered by the printed parent chain. Read-outs that look alike come from different tables or passages of the source.

Experiments:
human TfR [1] = target: T1, human TfR (human, UniProt P02786 89-760, limits assumed); assay: soft-randomization libraries selected on TfR
T1 construct: Protein coated on ELISA plates; also called human transferrin receptor protein 1

human TfR [2] = target: T1, human TfR; assay: ELISA, TfR coated, Fab-Fc fusion
Procedure: Binding ELISAs were conducted with purified Fab-Fc fusion variants with human or cyno TfR coated on the plate, as described above. The variants from the clone CH3C.18 maturation library, clone CH3C.3.2-1, clone CH3C.3.2-5, and clone CH3C.3.2-19, bound human and cyno TfR with approximately equivalent EC₅₀ values, whereas the parent clones CH3C.18 and CH3C.35 had greater than 10-fold better binding to human versus cyno TfR.

[3] = target: BACE1 in primary human neurons (human, UniProt P56817 46-501); assay: cell-based or functional assay
[4] = target: cellular BACE1 in CHOK1-huAPP cells; assay: cell-based or functional assay
[5] = target: T2, recombinant BACE1 (BACE1 extracellular domain, R&D Systems Cat#931-AS) (UniProt P56817 22-457); assay: SPR Biacore T200, IgG captured, BACE1 analyte
T2 construct: extracellular domain; also called BACE1 extracellular domain protein
Procedure: The affinity of chimeric IgG antibodies for recombinant BACE1 was determined by surface plasmon resonance using a Biacore™ T200 instrument. Biacore™ Series S CMS sensor chips were immobilized with monoclonal mouse anti-human IgG (Fc) antibody (e.g., using a human antibody capture kit from GE Healthcare). 1 μg/mL of antibody was captured for 1 minute on each flow cell and serial 3-fold dilutions of recombinant BACE1 were injected at a flow rate of 30 μL/min. Each sample was analyzed with a 3-minute association and a 10-minute dissociation. After each injection, the chip was regenerated using 3M MgCl₂. Binding response was corrected by subtracting the RU from a flow cell capturing an irrelevant IgG at similar density. A 1:1 Langmuir model of simultaneous fitting of kₒₙ and koff was used for analysis of kinetics.

[6] = target: T2, recombinant BACE1 (BACE1 extracellular …); assay: SPR Biacore
[7] = target: T2, recombinant BACE1 (BACE1 extracellular …); assay: SPR Biacore; remark: listed apart in the source
[8] = target: cellular BACE1 in CHOK1-huAPP cells; assay: cell-based or functional assay; remark: listed apart in the source
[9] = target: cellular BACE1 in CHOK1-huAPP cells; assay: cell-based or functional assay; remark: listed apart in the source
[10] = target: cellular BACE1 in CHOK1-huAPP cells; assay: cell-based or functional assay; remark: listed apart in the source

T1 sequence (P02786 89-760 limits assumed): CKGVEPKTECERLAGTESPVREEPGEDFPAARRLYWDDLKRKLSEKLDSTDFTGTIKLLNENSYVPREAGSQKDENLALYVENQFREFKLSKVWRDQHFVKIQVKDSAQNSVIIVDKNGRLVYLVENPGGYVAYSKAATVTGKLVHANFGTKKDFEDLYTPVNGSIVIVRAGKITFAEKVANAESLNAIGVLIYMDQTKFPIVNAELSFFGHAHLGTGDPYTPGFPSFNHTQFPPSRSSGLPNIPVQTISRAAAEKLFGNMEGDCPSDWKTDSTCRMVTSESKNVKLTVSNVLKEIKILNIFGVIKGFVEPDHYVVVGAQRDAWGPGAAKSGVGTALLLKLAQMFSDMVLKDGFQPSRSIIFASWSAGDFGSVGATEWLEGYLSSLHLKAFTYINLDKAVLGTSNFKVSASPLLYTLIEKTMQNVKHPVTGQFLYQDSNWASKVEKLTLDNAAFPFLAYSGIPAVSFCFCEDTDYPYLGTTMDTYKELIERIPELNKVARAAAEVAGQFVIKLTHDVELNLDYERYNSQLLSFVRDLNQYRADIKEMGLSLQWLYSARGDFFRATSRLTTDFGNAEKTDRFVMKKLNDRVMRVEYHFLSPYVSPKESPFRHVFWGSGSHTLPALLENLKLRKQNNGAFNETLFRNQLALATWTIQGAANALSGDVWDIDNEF
T2 sequence (P56817 22-457): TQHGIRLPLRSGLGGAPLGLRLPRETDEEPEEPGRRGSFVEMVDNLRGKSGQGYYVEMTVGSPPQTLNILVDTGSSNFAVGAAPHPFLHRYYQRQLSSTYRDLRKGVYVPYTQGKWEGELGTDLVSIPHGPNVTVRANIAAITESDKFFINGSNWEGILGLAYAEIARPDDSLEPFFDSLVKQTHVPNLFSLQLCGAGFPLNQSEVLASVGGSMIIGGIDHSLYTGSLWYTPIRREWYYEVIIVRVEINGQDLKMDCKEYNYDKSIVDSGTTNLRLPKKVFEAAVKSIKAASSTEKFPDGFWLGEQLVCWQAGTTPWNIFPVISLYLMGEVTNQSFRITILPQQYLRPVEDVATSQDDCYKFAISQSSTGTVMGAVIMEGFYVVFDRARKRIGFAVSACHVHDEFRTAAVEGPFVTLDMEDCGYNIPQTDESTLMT
Chain of BACE1 in primary human neurons (P56817 46-501): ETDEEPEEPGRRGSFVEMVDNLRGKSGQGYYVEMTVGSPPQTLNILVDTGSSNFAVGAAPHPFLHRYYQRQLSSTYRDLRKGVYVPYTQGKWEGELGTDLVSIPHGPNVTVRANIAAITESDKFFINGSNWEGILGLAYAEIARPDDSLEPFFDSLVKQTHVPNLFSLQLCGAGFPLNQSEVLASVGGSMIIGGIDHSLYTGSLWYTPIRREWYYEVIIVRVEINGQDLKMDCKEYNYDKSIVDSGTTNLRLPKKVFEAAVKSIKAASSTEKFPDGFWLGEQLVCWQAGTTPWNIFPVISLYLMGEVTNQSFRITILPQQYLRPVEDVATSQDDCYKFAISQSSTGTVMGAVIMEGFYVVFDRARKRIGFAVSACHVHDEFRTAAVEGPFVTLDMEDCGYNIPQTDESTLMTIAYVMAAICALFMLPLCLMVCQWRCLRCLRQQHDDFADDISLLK

B1: Clone CH3C.21 (designed binder)
chain: APELLGGPSVFLFPPKPKDTLMISRTPEVTCVVVDVSHEDPEVKFNWYVDGVEVHNAKTKPREEQYNSTYRVVSVLTVLHQDWLNGKEYKCKVSNKALPAPIEKTISKAKGQPREPQVYTLPPSRDELTKNQVSLTCLVKGFYPSDIAVEWESLGLVWVGYKTTPPVLDSDGSFFLYSKLTVPKSTWQQGWVFSCSVMHEALHNHYTQKSLSLSPGK
notes: modified Fc polypeptide
Q: Does B1 bind (human TfR [1])?
A: binds

B2: Clone CH3C.25 (designed binder)
chain: B1 chain with L154M, L156H, P183D
notes: modified Fc polypeptide
Q: Does B2 bind (human TfR [1])?
A: binds

B3: Clone CH3C.51 (designed binder)
chain: B1 chain with L156H, P183S, T186E
notes: modified Fc polypeptide
Q: Does B3 bind (human TfR [1])?
A: binds

B4: Clone CH3C.34 (designed binder)
chain: B1 chain with G160F, Y161S
notes: modified Fc polypeptide
Q: Does B4 bind (human TfR [1])?
A: binds

B5: Clone CH3C.44 (designed binder)
chain: B1 chain with L154Y, L156T, V157E, V159S, G160N, P183S, T186E, W191F
notes: modified Fc polypeptide
Q: Does B5 bind (human TfR [1])?
A: binds

B6: Clone CH3C.3.2-1 (designed binder)
chain: B1 chain with L156H, G160N, Y161F
notes: modified Fc polypeptide; tested as purified Fab-Fc fusion, Fab not identified
Q: Does B6 bind (human TfR [2])?
A: binds

B7: Clone CH3C.17 (designed binder)
chain: B1 chain with L154Y, L156T, V159S, G160K, P183S, T186E, W191F
notes: modified Fc polypeptide
Q: Does B7 bind (human TfR [1])?
A: binds

B8: 2H8 (antibody, human IgG1, V domains shown)
VH: EVQLQQSGPELVKPGASVKLSCKASGYTFTNFWIHWLKQRPGQGLEWIGMIDPSDSYTKYNQKFKAKATLTVDTSSSTTYMHLSSLTSEDSAVYYCARSGVAFPYWGQRTLVTVSA
VL: DIVMTQSQKFMSKSVGDTVSVTCKASQDVGRNVAWYQQKSGQSPKSLIYSASHRYSGVPDRFTGSGSGTDFTLTISNVQSEDLADYFCQQYNSYPYTFGGGTRLEIK
notes: chimeric, human IgG1/kappa; also called Clone 2H8; 2H8.01
Q: What does the source list for B8?
A: IC50 of Aβ40 formation, primary human neurons [3]: 15 nM; IC50 [4]: 24.8 nM; Max. % inhibition [4]: 82%; Kd [5]: 6.3 nM; koff [5]: 0.00019 s⁻¹; kon [5]: 30000 M⁻¹ s⁻¹; Kd [6]: 14.8 nM; koff [6]: 0.000316 s⁻¹; kon [6]: 21400 M⁻¹ s⁻¹; Kd [7]: 14.8 nM; IC50 [8]: 25 nM; Max. % inhibition [8]: 82%; % Max Inhibition [9]: 71%; Cellular IC50 [9]: 16 nM

B9: Clone35.23.4:2H8/2H8 (antibody, V domains shown)
VH: QVQLVQSGAEVKKPGASVKVSCKASGYTFTNFWIHWVRQAPGQGLEWMGMIDPSSSYTKYNQKFKARATLTVDTSTSTVYMELSSLRSEDTAVYYCARSGASLPYWGQGTLVTVSS
VL: DIQMTQSPSSLSASVGDRVTITCKASQDVGRNVAWYQQKPGKSPKSLIYSASHYYSGVPSRFSGSGSGTDFTLTISSLQPEDFATYFCQQYYSYPYTFGQGTKVEIK
Q: With B9 as the binder, how does the “cellular IC50 (human Aβ40, CHO-huAPP cells)” value [10] read?
A: 10 nM
